The assay concerns the target T1, CD16a (UniProt P08637 17-208, limits assumed).
T1 construct: also called Fc receptor CD16
The experiment in a line: surface plasmon resonance traces (FIG. 10D). (In general: Surface plasmon resonance follows binding to a sensor surface in real time, without labels.)

T1 sequence (P08637 17-208 limits assumed): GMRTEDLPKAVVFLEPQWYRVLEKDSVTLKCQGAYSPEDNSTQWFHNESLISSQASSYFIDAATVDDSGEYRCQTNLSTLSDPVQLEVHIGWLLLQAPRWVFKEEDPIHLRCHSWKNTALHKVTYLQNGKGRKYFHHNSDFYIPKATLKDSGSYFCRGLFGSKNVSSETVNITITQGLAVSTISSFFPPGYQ

B1: Anti-CD16 nanobody (VHH)
VHH: EVQLTESGGEDVQAGGSLRLSCSASGLTFSSYNMGWFRRAPGKEREFVASITWSGRDTFYADSVKGRFTISRDNAKNTVYLQMSSLKPEDTATYYCAANPWPVAAPRSGTYWGEGTQVTV
notes: also called αCD16; anti-CD16 single domain antibody
For B1, the binding result is listed as “binds”.

Values taken from patent US20210061922A1 (CITY OF HOPE, published 2021).
